The assay has as its target α-tubulin of purified porcine brain tubulin (porcine) (UniProt P02550).
Chain of UniProt P02550 (P02550 whole entry): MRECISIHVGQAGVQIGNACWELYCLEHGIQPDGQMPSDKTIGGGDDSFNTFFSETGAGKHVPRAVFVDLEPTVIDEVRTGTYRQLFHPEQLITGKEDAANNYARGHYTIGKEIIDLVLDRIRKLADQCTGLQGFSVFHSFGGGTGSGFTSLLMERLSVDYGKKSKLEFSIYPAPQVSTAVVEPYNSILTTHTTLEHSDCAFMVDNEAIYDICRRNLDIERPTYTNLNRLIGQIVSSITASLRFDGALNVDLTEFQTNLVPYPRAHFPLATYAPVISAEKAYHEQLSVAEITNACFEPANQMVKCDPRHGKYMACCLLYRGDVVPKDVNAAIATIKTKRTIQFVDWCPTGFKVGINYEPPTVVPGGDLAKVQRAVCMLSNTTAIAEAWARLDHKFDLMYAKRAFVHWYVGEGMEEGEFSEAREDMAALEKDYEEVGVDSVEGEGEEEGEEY

For the substance “LSF present in purified porcine brain tubulin preparations (natural protein)”, the methylation of purified tubulin by GST-SET8 ([3H]AdoMet, autoradiogram) with increasing concentrations of the LSF inhibitor FQI1, up to 100 μM was 3 fold.

The record behind these values is PMC7135998.
